Reference: patent publication US8889392B2, “Monolignol 4-O-methyltransferases and uses thereof” (Brookhaven Science Associates, LLC, priority 2010, dated 2014)

Legend:
[1] = Kinetic parameters for 4-O-methylation of sinapyl alcohol; assay type: biochemical; details: for fold increase of catalytic efficiency compared with the wild-type enzyme: sinapyl alcohol; for Km / Vmax: substrate sinapyl alcohol, 4-O-methylation
[2] = Kinetic parameters for 4-O-methylation of coniferyl alcohol; assay type: biochemical; details: for fold increase of catalytic efficiency compared with the wild-type enzyme: coniferyl alcohol; for Km / Vmax: substrate coniferyl alcohol, 4-O-methylation
Experimental: E. coli transformants were inoculated in 96 well plates. Protein production was induced with 0.2 mM isopropyl β-D-1-thiogalactopyranoside, and the harvested cell cultures were lysed with 60 μl of BugBuster solution per well (Novagen). Enzymatic activity was screened using the lysates directly or after purification of the recombinant protein in a 96 well purification plate.
Screening was performed in a polypropylene microplate (Bio-Rad) containing 50 μl of the reaction in each well, 500 μM p-coniferyl-alcohol substrates, and 500 μM S-adenosyl-L-methionine augmented with (isotopic assay) or without (LC-MS assay) 0.005 μCi of [methyl-^14C]S-adenosyl-L-methionine, and 20 μl of lysates or purified protein (Ni^+ column eluate). (see Bhuiya, M. W. and Liu, C. J. (2010) J. Biol. Chem. 285:277-285 and its supplemental material).
To further optimize the catalytic efficiency of MOMT on the desired para-methylation of monolignols, based on the crystal structure of MOMT3, we identified additional amino acid residues that either directly contact or are proximate to the bound coniferyl alcohol, particularly the residues near the 3-methoxy-buried pocket. They are F130, A134, V138, L139, F157, Y161, N164, F166, Y168, H169, H173, F179, M183, N186, T319, L322, M323, A325, Y326, and N327. We then carried out the next round saturation mutagenesis on the recognized amino acid sites using MOMT3 as the parental template. […] The MOMT4 enzyme predominantly reacted with coniferyl and sinapyl alcohols, with preference for the latter, while the MOMT5 favors for coniferyl alcohol.

Molecule | fold increase of catalytic efficiency compared with the wild-type enzyme [1] | Km [1] | Vmax [1] | fold increase of catalytic efficiency compared with the wild-type enzyme [2] | Km [2] | Vmax [2]
T133I-E165I-F175I-F166W: IEMT tetra mutant derived from MOMT3 (protein) MGSTGNAEIQIIPTHSSDEEANLFAMQLASAAVLPMALKAAIELDVLEIMAKSVPPSGYISPAEIAAQLPTTNPEAPVMLDRVLRLLASYSVVTYTLRELPSGKVERLYGLAPVCKFLTKNEDGVSLAPFLLIATDKVLLEPWFYLKDAILEGGIPFNKAYGMNIWDYHGTDHRINKVFNKGMSSNSTITMKKILEMYNGFEGLTTIVDVGGGTGAVASMIVAKYPSINAINFDLPHVIQDAPAFSGVEHLGGDMFDGVPKGDAIFIKWICHDWSDEHCLKLLKNCYAALPDHGKVIVAEYILPPSPDPSIATKVVIHTDALMLAYNPGGKERTEKEFQALAMASGFRGFKVASCAFNTYVMEFLKTA | ~200 fold | 47 ± 8 µM | 147 ± 4 nmol/mg/min | ~200 fold | 117 ± 15 µM | 496 ± 8 nmol/mg/min
T133I-E165I-F175I-Y326F-N327V: IEMT penta mutant derived from MOMT3 (protein) MGSTGNAEIQIIPTHSSDEEANLFAMQLASAAVLPMALKAAIELDVLEIMAKSVPPSGYISPAEIAAQLPTTNPEAPVMLDRVLRLLASYSVVTYTLRELPSGKVERLYGLAPVCKFLTKNEDGVSLAPFLLIATDKVLLEPWFYLKDAILEGGIPFNKAYGMNIFDYHGTDHRINKVFNKGMSSNSTITMKKILEMYNGFEGLTTIVDVGGGTGAVASMIVAKYPSINAINFDLPHVIQDAPAFSGVEHLGGDMFDGVPKGDAIFIKWICHDWSDEHCLKLLKNCYAALPDHGKVIVAEYILPPSPDPSIATKVVIHTDALMLAFVPGGKERTEKEFQALAMASGFRGFKVASCAFNTYVMEFLKTA | – | 340 ± 30 µM | 429 ± 15 nmol/mg/min | – | 196 ± 44 µM | 520 ± 25 nmol/mg/min
T133I-E165I-F175I-F166W-H169F: IEMT penta mutant (MOMT5) (protein) MGSTGNAEIQIIPTHSSDEEANLFAMQLASAAVLPMALKAAIELDVLEIMAKSVPPSGYISPAEIAAQLPTTNPEAPVMLDRVLRLLASYSVVTYTLRELPSGKVERLYGLAPVCKFLTKNEDGVSLAPFLLIATDKVLLEPWFYLKDAILEGGIPFNKAYGMNIWDYFGTDHRINKVFNKGMSSNSTITMKKILEMYNGFEGLTTIVDVGGGTGAVASMIVAKYPSINAINFDLPHVIQDAPAFSGVEHLGGDMFDGVPKGDAIFIKWICHDWSDEHCLKLLKNCYAALPDHGKVIVAEYILPPSPDPSIATKVVIHTDALMLAYNPGGKERTEKEFQALAMASGFRGFKVASCAFNTYVMEFLKTA | ~200 fold | 37 ± 7 µM | 124 ± 7 nmol/mg/min | ~200 fold | 80 ± 6 µM | 440 ± 10 nmol/mg/min
T133L-E165F: IEMT double mutant variant (protein) MGSTGNAEIQIIPTHSSDEEANLFAMQLASAAVLPMALKAAIELDVLEIMAKSVPPSGYISPAEIAAQLPTTNPEAPVMLDRVLRLLASYSVVTYTLRELPSGKVERLYGLAPVCKFLTKNEDGVSLAPFLLLATDKVLLEPWFYLKDAILEGGIPFNKAYGMNFFDYHGTDHRFNKVFNKGMSSNSTITMKKILEMYNGFEGLTTIVDVGGGTGAVASMIVAKYPSINAINFDLPHVIQDAPAFSGVEHLGGDMFDGVPKGDAIFIKWICHDWSDEHCLKLLKNCYAALPDHGKVIVAEYILPPSPDPSIATKVVIHTDALMLAYNPGGKERTEKEFQALAMASGFRGFKVASCAFNTYVMEFLKTA | – | 382 ± 32 µM | 103 ± 4 nmol/mg/min | – | 280 ± 18 µM | 117 ± 3 nmol/mg/min
T133I-E165I-F175I-Y161W: IEMT tetra mutant derived from MOMT3 (protein) MGSTGNAEIQIIPTHSSDEEANLFAMQLASAAVLPMALKAAIELDVLEIMAKSVPPSGYISPAEIAAQLPTTNPEAPVMLDRVLRLLASYSVVTYTLRELPSGKVERLYGLAPVCKFLTKNEDGVSLAPFLLIATDKVLLEPWFYLKDAILEGGIPFNKAWGMNIFDYHGTDHRINKVFNKGMSSNSTITMKKILEMYNGFEGLTTIVDVGGGTGAVASMIVAKYPSINAINFDLPHVIQDAPAFSGVEHLGGDMFDGVPKGDAIFIKWICHDWSDEHCLKLLKNCYAALPDHGKVIVAEYILPPSPDPSIATKVVIHTDALMLAYNPGGKERTEKEFQALAMASGFRGFKVASCAFNTYVMEFLKTA | – | 219 ± 19 µM | 259 ± 8 nmol/mg/min | – | 196 ± 34 µM | 584 ± 37 nmol/mg/min
T133I-E165I-F175I-H169F: MOMT4 tetra mutant expressed in Arabidopsis (protein) MGSTGNAEIQIIPTHSSDEEANLFAMQLASAAVLPMALKAAIELDVLEIMAKSVPPSGYISPAEIAAQLPTTNPEAPVMLDRVLRLLASYSVVTYTLRELPSGKVERLYGLAPVCKFLTKNEDGVSLAPFLLIATDKVLLEPWFYLKDAILEGGIPFNKAYGMNIFDYFGTDHRINKVFNKGMSSNSTITMKKILEMYNGFEGLTTIVDVGGGTGAVASMIVAKYPSINAINFDLPHVIQDAPAFSGVEHLGGDMFDGVPKGDAIFIKWICHDWSDEHCLKLLKNCYAALPDHGKVIVAEYILPPSPDPSIATKVVIHTDALMLAYNPGGKERTEKEFQALAMASGFRGFKVASCAFNTYVMEFLKTA | – | 68 ± 11 µM | 408 ± 17 nmol/mg/min | – | 193 ± 25 µM | 793 ± 32 nmol/mg/min
T133I-E165I-F175I-F166W-H169W: IEMT penta mutant derived from MOMT3 (protein) MGSTGNAEIQIIPTHSSDEEANLFAMQLASAAVLPMALKAAIELDVLEIMAKSVPPSGYISPAEIAAQLPTTNPEAPVMLDRVLRLLASYSVVTYTLRELPSGKVERLYGLAPVCKFLTKNEDGVSLAPFLLIATDKVLLEPWFYLKDAILEGGIPFNKAYGMNIWDYWGTDHRINKVFNKGMSSNSTITMKKILEMYNGFEGLTTIVDVGGGTGAVASMIVAKYPSINAINFDLPHVIQDAPAFSGVEHLGGDMFDGVPKGDAIFIKWICHDWSDEHCLKLLKNCYAALPDHGKVIVAEYILPPSPDPSIATKVVIHTDALMLAYNPGGKERTEKEFQALAMASGFRGFKVASCAFNTYVMEFLKTA | – | 67 ± 10 µM | 160 ± 12 nmol/mg/min | – | 127 ± 8 µM | 392 ± 9 nmol/mg/min
T133I-E165I-F175I-A325V: IEMT tetra mutant derived from MOMT3 (protein) MGSTGNAEIQIIPTHSSDEEANLFAMQLASAAVLPMALKAAIELDVLEIMAKSVPPSGYISPAEIAAQLPTTNPEAPVMLDRVLRLLASYSVVTYTLRELPSGKVERLYGLAPVCKFLTKNEDGVSLAPFLLIATDKVLLEPWFYLKDAILEGGIPFNKAYGMNIFDYHGTDHRINKVFNKGMSSNSTITMKKILEMYNGFEGLTTIVDVGGGTGAVASMIVAKYPSINAINFDLPHVIQDAPAFSGVEHLGGDMFDGVPKGDAIFIKWICHDWSDEHCLKLLKNCYAALPDHGKVIVAEYILPPSPDPSIATKVVIHTDALMLVYNPGGKERTEKEFQALAMASGFRGFKVASCAFNTYVMEFLKTA | – | 97 ± 7 µM | 214 ± 4 nmol/mg/min | – | 236 ± 50 µM | 446 ± 33 nmol/mg/min
T133I-E165I-F175I-H169M: IEMT tetra mutant derived from MOMT3 (protein) MGSTGNAEIQIIPTHSSDEEANLFAMQLASAAVLPMALKAAIELDVLEIMAKSVPPSGYISPAEIAAQLPTTNPEAPVMLDRVLRLLASYSVVTYTLRELPSGKVERLYGLAPVCKFLTKNEDGVSLAPFLLIATDKVLLEPWFYLKDAILEGGIPFNKAYGMNIFDYMGTDHRINKVFNKGMSSNSTITMKKILEMYNGFEGLTTIVDVGGGTGAVASMIVAKYPSINAINFDLPHVIQDAPAFSGVEHLGGDMFDGVPKGDAIFIKWICHDWSDEHCLKLLKNCYAALPDHGKVIVAEYILPPSPDPSIATKVVIHTDALMLAYNPGGKERTEKEFQALAMASGFRGFKVASCAFNTYVMEFLKTA | – | 89 ± 10 µM | 370 ± 11 nmol/mg/min | – | 220 ± 27 µM | 629 ± 26 nmol/mg/min
T133I-E165I-F175I-Y161F: IEMT tetra mutant derived from MOMT3 (protein) MGSTGNAEIQIIPTHSSDEEANLFAMQLASAAVLPMALKAAIELDVLEIMAKSVPPSGYISPAEIAAQLPTTNPEAPVMLDRVLRLLASYSVVTYTLRELPSGKVERLYGLAPVCKFLTKNEDGVSLAPFLLIATDKVLLEPWFYLKDAILEGGIPFNKAFGMNIFDYHGTDHRINKVFNKGMSSNSTITMKKILEMYNGFEGLTTIVDVGGGTGAVASMIVAKYPSINAINFDLPHVIQDAPAFSGVEHLGGDMFDGVPKGDAIFIKWICHDWSDEHCLKLLKNCYAALPDHGKVIVAEYILPPSPDPSIATKVVIHTDALMLAYNPGGKERTEKEFQALAMASGFRGFKVASCAFNTYVMEFLKTA | – | 206 ± 25 µM | 289 ± 12 nmol/mg/min | – | 197 ± 21 µM | 642 ± 24 nmol/mg/min
